Measured values taken from article doi:10.1101/2025.09.13.676064, “Structural Hijacking of FcRn by Human Astrovirus Spikes Reveals Conserved Epitopes for Broad-Spectrum Antivirals” (bioRxiv, 2025).

B1: HAstV-2 capsid spike domain (residues 428-647) (domain or fragment)
chain: SGELRVLLTVGSIMSPNSADRQVWLNKTLTAPGTNSNDNLVKIAHDLGHYLIMQGFMHIKTVEWYTPDFQPSRDPTPIAGMSVMVNITKKADVYFMKQFKNSYTNNRHQITSIFLIKPLADFKVQCYMSYFKRESHDNDGVANLTVRSMTSPETIRFQVGEWYLLTSTTLKENNLPEGWVWDRVELKSDTPYYADQALTYFITPPPVDSQILFEGNTTLP
modifications: biotin (biotinylated spike; BirA co-transfected)
notes: Human astrovirus serotype 2 capsid protein (ORF2-encoded precursor), spike domain, residues 428-647 of Q82446.1; Codon-optimised, in pcDNA3.1; also called HAstV2 spike; serotype 2 spike; source: Expi293F cells, co-transfected with BirA plasmid, purified from the supernatant (Ni-IMAC, SEC Superdex 200); not shown: AviTag, C-terminal, kept
B2: HAstV-8 capsid spike domain (residues 424-645) (domain or fragment)
chain: SIPEPGEQFRVLLTVGPPMAPNTANSQNWVNKTIVPPENQYTVKIGIDLEHYTTMQGFTPVESVSWYTADFQPSDEPSPIPGLYARVNNTKKADVYGVQQFKSSHTNNRHQITSVFLVRVTTSFQVINYTSYFIRGAESGSNVSNLKIRDQTYHTPLQFTQGKWYLLTSTVMHDGPTSSGWVWMNQELTNNIAYRVDPGMMYLITPPPAASQLYFELHTVLP
modifications: biotin (biotinylated spike; BirA co-transfected)
notes: Human astrovirus serotype 8 capsid protein (ORF2-encoded precursor), spike domain, residues 424-645 of Q9IFX1; Codon-optimised, in pcDNA3.1; also called HAstV8 spike; serotype 8 spike; source: Expi293F cells, co-transfected with BirA plasmid, purified from the supernatant (Ni-IMAC, SEC Superdex 200); not shown: AviTag, C-terminal, kept

Assays:
[1] = molecular target: T1, untagged recombinant human FcRn extracellular domain (neonatal Fc receptor; α-chain with β2-microglobulin) (human, UniProt P55899 24-297; P61769 21-119); assay: BLI; biotinylated spike immobilised on streptavidin (SA) biosensors; FcRn in solution, 2-fold dilutions 1,000 to 31.25 nM; 23°C; pH 6.0; 1:1 binding model; Octet Red; conditions: both partners purified
T1 construct: Human FcRn α-chain (heavy chain), residues 24-297 of UniProt P55899; Human β2-microglobulin, residues 21-119 of UniProt P61769; Untagged; both chains cloned into separate phCMV3 vectors; also called human FcRn ectodomain; FcRn heterodimer; source: Expi293F cells, co-transfected (1:1), purified from the supernatant (human IgG column, SEC Superdex 200 Increase)

[2] = molecular target: T1, untagged recombinant human FcRn …; assay: BLI; biotinylated spike immobilised on streptavidin (SA) biosensors; FcRn in solution, 2-fold dilutions 1,000 to 31.25 nM; 23°C; pH 7.5; 1:1 binding model; Octet Red; conditions: both partners purified

T1 sequence (P55899 24-297, chain 1 of 2): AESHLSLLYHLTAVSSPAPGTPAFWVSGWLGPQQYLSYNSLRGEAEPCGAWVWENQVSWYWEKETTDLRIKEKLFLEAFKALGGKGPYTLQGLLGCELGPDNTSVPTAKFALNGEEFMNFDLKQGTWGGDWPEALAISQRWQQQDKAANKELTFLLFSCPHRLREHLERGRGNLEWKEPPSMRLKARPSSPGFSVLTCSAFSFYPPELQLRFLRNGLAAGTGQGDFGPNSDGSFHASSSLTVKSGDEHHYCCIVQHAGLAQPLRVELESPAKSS
T1 sequence (P61769 21-119, chain 2 of 2): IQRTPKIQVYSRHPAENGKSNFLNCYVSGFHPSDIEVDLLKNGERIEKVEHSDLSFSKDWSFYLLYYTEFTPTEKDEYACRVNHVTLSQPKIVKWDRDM

Binder	Kd [1] [µM]	Kd [2] [µM]
B1	0.042	0.898
B2	0.06	0.458
